{"source": "paper PMC3542637", "about": "(Biochemistry, 2012)", "target": "the molecule itself", "test": "crystal structure", "data": [{"protein": "L-fucose dehydrogenase BmulJ_04919 from Burkholderia multivorans ATCC 17616 (enzyme, UniProt A0A0H3KNE7 1-258, looked up) MDLNLQDKVVIVTGGASGIGGAISMRLAEERAIPVVFARHAPDGAFLDALAQRQPRATYLPVELQDDAQCRDAVAQTIATFGRLDGLVNNAGVNDGIGLDAGRDAFVASLERNLIHYYAMAHYCVPHLKATRGAIVNISSKTAVTGQGNTSGYCASKGAQLALTREWAVALREHGVRVNAVIPAEVMTPLYRNWIATFEDPEAKLAEIAAKVPLGRRFTTPDEIADTAVFLLSPRASHTTGEWLFVDGGYTHLDRALV", "values": [{"measurement": "stoichiometry N", "value": 4}]}]}
